This data set has as its system COc1cc(C=NN=Cc2cc(OC)c(O)c(OC)c2)cc(OC)c1O. The experiment in a line: purified protein. The following applies: standard assay: 50 mM Na2HPO4-KH2PO4 pH 7.5, 100 µM CuSO4, 45 °C, conditions of the Km series not given separately.
Regarding Lac15 (uncultured bacterium), the Km (commonly the substrate concentration at which the rate is half of its maximum) is 3.74 ± 0.37 µM; the kcat (usually the number of substrate molecules converted per active site and unit of time at saturation) is 1.39 ± 0.11 s⁻¹.

With “Lac15 (uncultured bacterium; DEL323-332)”, the Km was found to be 6.34 ± 0.19 µM and the kcat was found to be 1.69 ± 0.13 s⁻¹.

Lac15-His6 (uncultured bacterium): the Km is 4.53 ± 0.21 µM and the kcat amounted to 1.35 ± 0.09 s⁻¹.

For the origin of these results see article PMC4103834, “Structure-Based Rational Design to Enhance the Solubility and Thermostability of a Bacterial Laccase Lac15” (PLoS ONE, 2014).
